4 compounds from paper PMC6199259, “Structural and functional insights into the interaction and targeting hub TMD0 of the polypeptide transporter TAPL” (Scientific Reports, 2018) can be followed below.

The target in one test is T1, coreTAPLmV (Homo sapiens, UniProt Q9NP78).
T1 construct: gene ABCB9
The note with it: 3 mM ATP, 3 uM RRYC(fluorescein)KSTEL, 3 mM MgCl2, pH 7.5, 37 °C, 15 min; with cf-TMD0-His co-reconstituted.

The target of another test is T2, TmrAB (Thermus thermophilus, UniProt Q72J04+Q72J05).
T2 construct: gene TT_C0976
The note with it: 3 mM ATP, 3 uM RRYC(fluorescein)KSTEL, 3 mM MgCl2, pH 7.5, 37 °C, 15 min; with cf-TMD0-His co-reconstituted.

The target of test [1] is cf-TMD0-His (M1 – P142), cell-free expressed (human) (UniProt Q9NP78). Briefly: SEC-MALS; 400 µg cf-TMD0-His on TSK-GEL G3000SWXL, 4 °C; 25 mM Na acetate, 300 mM NaCl, 0.7% c6-DHPC, pH 5.0; three-detector method (UV, refractive index, light scattering). Background: SEC sorts molecules by how far they enter the pores of the column.
Test [2] addresses cf-TMD0-His S28C, MTSL labeled (human) (UniProt Q9NP78). The test is described as follows: PELDOR (DEER) spectroscopy; MTSL labeled single cysteine cf-TMD0-His in c6-DHPC with 15–20% deuterated glycerol, frozen; Q-band (33.4 GHz), 50 K; modulation depth and distance distribution by Tikhonov regularization.
The target of test [3] is cf-TMD0-His S138C, MTSL labeled (human) (UniProt Q9NP78). The description is as above.

For the compound `Nc1ncnc2c1ncn2[C@@H]1O[C@H](COP(=O)(O)OP(=O)(O)OP(=O)(O)O)[C@@H](O)[C@H]1O` [ATP], the “ATP-dependent peptide transport in proteoliposomes, fluorescence” value at coreTAPLmV and at TmrAB was “Functional reconstitution of coreTAPLmV as well as TmrAB into liposomes was demonstrated by ATP-dependent peptide transport” each time.

In general, stoichiometry N refers to the number of molecules, sites or subunits per partner or assembly. In test [1], “cf-TMD0-His (M1 – P142), cell-free expressed (from UniProt Q9NP78 1-142) (domain or fragment)” had a stoichiometry N of 2. The compound “cf-TMD0-His S28C, MTSL labeled (from UniProt Q9NP78 1-142) (domain or fragment)” had a stoichiometry N in test [2] of 2. In test [3], “cf-TMD0-His S138C, MTSL labeled (from UniProt Q9NP78 1-142) (domain or fragment)” gave a stoichiometry N of 2.
